Here are results for eight molecules from publication PMC3642088, “Phosphorylation of CDK9 at Ser175 Enhances HIV Transcription and Is a Marker of Activated P-TEFb in CD4^+ T Lymphocytes” (PLoS Pathogens, 2013).

Assay [1] addresses FLAG-tagged CDK9 (293T cells) (human) (UniProt P50750). Kind of assay: co-IP; anti-FLAG IP from 293T cells stably expressing FLAG-tagged CDK9, with or without transiently transfected HA-tagged Tat, with or without PMA for 1 hr or 2 hrs, Western blot. (In general: Immunoblotting shows a protein as a band on a membrane.)
For assay [2], the target named is Cyclin T1 (CycT1, hCycT1) (UniProt O60563). Kind of assay: anti-FLAG co-IP, Western blot. The following applies: reference: wild type.
For another assay, the target named is BRD4 (UniProt O60885). Kind of assay: anti-FLAG co-IP, Western blot. The following applies: reference: wild type.
In a further assay the target is FLAG-CDK9 S175A (human) (UniProt P50750). The experiment in a line: co-IP; anti-FLAG IP of FLAG-CDK9 wildtype or mutants from latently infected Jurkat T-cells induced for 16 hr with TNF-α to express Tat, Western blot for BRD4, Tat and CycT1; levels normalised to total CDK9, three experiments.
The target in assay [3] is FLAG-CDK9 S175D (human) (UniProt P50750). The assay is described as above.
For assay [4] the target is unchanged.
Another assay deals with Tat. Kind of assay: anti-FLAG co-IP, Western blot. To be noted: reference: wild type; sites S175.
The next assay addresses FLAG-HEXIM1 (UniProt O94992). Kind of assay: co-IP; anti-FLAG IP of FLAG-HEXIM1 from whole cell extracts of 2D10 cells, unstimulated or PMA for 1 h with or without U0126, FLAG peptide elution, Western blot.
A further assay concerns the target T1, FLAG-CDK9 T186D (human, UniProt P50750 1-372, T186D).
T1 construct: also called T186D CDK9
The experiment in a line: co-IP; anti-FLAG M2 agarose IP of FLAG-CDK9 wildtype or mutants from whole cell extracts (lysis buffer A) of Jurkat 2D10 cells, FLAG peptide elution, Western blot; densitometry normalised to total immunoprecipitated CDK9, five experiments. The following applies: partners not purified.

Another assay concerns the target T2, FLAG-CDK9 S175D (human, UniProt P50750 1-372, S175D).
T2 construct: also called S175D CDK9; Ser175Asp
Described as above. To be noted: partners not purified.

In another assay the target is T3, FLAG-CDK9 S175A (human, UniProt P50750 1-372, S175A).
T3 construct: also called S175A CDK9; Ser175Ala
The assay is described as above. The following applies: partners not purified.

A further assay concerns the target T4, FLAG-CDK9 T186A (human, UniProt P50750 1-372, T186A).
T4 construct: also called T186A CDK9
The assay is described as above. To be noted: partners not purified.

Regarding “HA-tagged Tat (from UniProt P04608 1-86) (natural protein)”, in assay [1], the percent increase of Tat associated with CDK9 after 1 hr of PMA is 12%, the percent of HEXIM1 released from FLAG-CDK9 on expression of HA-Tat is 71% and the percent of LARP7 released from FLAG-CDK9 on expression of HA-Tat is 82%.

Take “CDK9 (FLAG-CDK9 isoform 1) (from UniProt P50750) T186D”: the results for the percent of reference (in assay [2] (sites T186); with BRD4 (sites T186)) were 49.4% and 61.6%, respectively.

On to “HIV Tat H13L (from UniProt P04608 1-86) (natural protein)”, for which the percent of wildtype association with FLAG-CDK9 S175A (human) amounted to 59.2%; in the assay with FLAG-CDK9 S175D (human) [3], 109%. Besides, the CDK9 kinase activity of the affinity purified FLAG-CDK9 complex in the in vitro RNAP II CTD kinase assay, against wildtype CDK9 with FLAG-CDK9 S175D (human) [4] was found to be 159%. Moreover, the CDK9 kinase activity of the affinity purified FLAG-CDK9 complex in the in vitro autophosphorylation assay, against wildtype CDK9 with FLAG-CDK9 S175D (human) [4] amounted to 117%.

As for “CDK9 (FLAG-CDK9 isoform 1) (from UniProt P50750) S175A”, the percent of reference turned out to be 59.2% with Tat, 98.9% in [2] (sites S175) and 1.9% in the assay with BRD4 (sites S175).

Molecule “CDK9 (FLAG-CDK9 isoform 1) (from UniProt P50750) S175D” showed a percent of reference in [2] (sites S175) of 78.9%.

With “endogenous CDK9 (from UniProt P50750 1-372) (enzyme)”, the percent reduction of association after PMA for 1 h with FLAG-HEXIM1 was 30%.

B1: HEXIM1 (natural protein, human (endogenous in Jurkat), UniProt O94992 1-359, looked up)
chain: MAEPFLSEYQHQPQTSNCTGAAAVQEELNPERPPGAEERVPEEDSRWQSRAFPQLGGRPGPEGEGSLESQPPPLQTQACPESSCLREGEKGQNGDDSSAGGDFPPPAEVEPTPEAELLAQPCHDSEASKLGAPAAGGEEEWGQQQRQLGKKKHRRRPSKKKRHWKPYYKLTWEEKKKFDEKQSLRASRIRAEMFAKGQPVAPYNTTQFLMDDHDQEEPDLKTGLYSKRAAAKSDDTSDDDFMEEGGEEDGGSDGMGGDGSEFLQRDFSETYERYHTESLQNMSKQELIKEYLELEKCLSRMEDENNRLRLESKRLGGDDARVRELELELDRLRAENLQLLTENELHRQQERAPLSKFGD
notes: source: endogenous, Jurkat T-cell whole cell extract
Regarding B1, the “percent reduction of co-precipitation against wildtype CDK9” value in the assay with FLAG-CDK9 T186D and in the assay with FLAG-CDK9 T186A was over 99% throughout. Moreover, the “percent co-immunoprecipitated against wildtype CDK9” value is 67.5% in the assay with FLAG-CDK9 S175D and over 90% with FLAG-CDK9 S175A.

B2: LARP7 (natural protein, human (endogenous in Jurkat), UniProt Q4G0J3 1-582, looked up)
chain: METESGNQEKVMEEESTEKKKEVEKKKRSRVKQVLADIAKQVDFWFGDANLHKDRFLREQIEKSRDGYVDISLLVSFNKMKKLTTDGKLIARALRSSAVVELDLEGTRIRRKKPLGERPKDEDERTVYVELLPKNVNHSWIERVFGKCGNVVYISIPHYKSTGDPKGFAFVEFETKEQAAKAIEFLNNPPEEAPRKPGIFPKTVKNKPIPALRVVEEKKKKKKKKGRMKKEDNIQAKEENMDTSNTSISKMKRSRPTSEGSDIESTEPQKQCSKKKKKRDRVEASSLPEVRTGKRKRSSSEDAESLAPRSKVKKIIQKDIIKEASEASKENRDIEISTEEEKDTGDLKDSSLLKTKRKHKKKHKERHKMGEEVIPLRVLSKSEWMDLKKEYLALQKASMASLKKTISQIKSESEMETDSGVPQNTGMKNEKTANREECRTQEKVNATGPQFVSGVIVKIISTEPLPGRKQVRDTLAAISEVLYVDLLEGDTECHARFKTPEDAQAVINAYTEINKKHCWKLEILSGDHEQRYWQKILVDRQAKLNQPREKKRGTEKLITKAEKIRLAKTQQASKHIRFSEYD
notes: as for B1
Turning to B2, the “percent reduction of co-precipitation against wildtype CDK9” value with FLAG-CDK9 T186D and with FLAG-CDK9 T186A was over 99% each time. The entries for the “percent co-immunoprecipitated against wildtype CDK9” value in the assay with FLAG-CDK9 S175D and with FLAG-CDK9 S175A were 77.2% and over 90%, respectively.
